From article PMC6754071

What follows are sequences tested on T1, PolR (Microlunatus phosphovorus NM-1), ORF:57668f7d (assay: EMSA). Conditions: EMSA: 3.0 ug His-PolR, 1.0 ug poly(dI-dC), 8% native PAGE, buffer not given (cites Zhang 2014); footprinting: 30 min room temperature, DNase I 1 min 25 C.
T1 sequence: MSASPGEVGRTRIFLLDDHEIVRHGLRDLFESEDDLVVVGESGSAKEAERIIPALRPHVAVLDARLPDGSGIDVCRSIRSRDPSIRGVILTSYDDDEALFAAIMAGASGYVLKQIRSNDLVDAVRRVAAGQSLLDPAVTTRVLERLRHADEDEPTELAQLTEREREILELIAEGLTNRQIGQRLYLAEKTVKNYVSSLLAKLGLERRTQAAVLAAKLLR

Sequence | binding
TCAGCCATCTGGACAACCTATCGTCCACACCACACGAGATAGCCGAGTTGGTCAGGTATTGATGCGAGTTGGGGTCGAACGTCCCGTCAGATCCGGTTCGAACGCATCACCTTTGAGTGAAGGCTCATCCGACAACGGGGATCAGCACACTCCTAG (double strand) [ppk (MLP_RS23025) promoter] | binds
TTCGACCTCCGTATTCGGCTATTCGACTGTCCACCCTCTTCGTTACCACCGAGGGAGACACGTCACATTCACAACTCCCGGTCTGCGGATCAGACCAGCGATGCTGTCCGTGACTGCGGAAAGCTGACGACCGGAGACTGAGCGCCGGGGACCCGTTAACCCATTGTTCGCCCGGCA (double strand) [ppk2 (MLP_RS02760) promoter] | no binding
ATTTGCAGCACTCCGTTCGCCGATTTGCAGCAGGCTTCTGTTCCGTGTGGTCCCCCGACCCAGGGGACCACGGAAACAACTGCGCAGCCCCCGCCCGAGGATCACCCGGAATCTTCCCCCAGGTTTGCCCTGACCCACAGAGGACGCCGCGGGACGAAGTCAACTTCAGCGTACGGTGGAGCACA (double strand) [ppgk (MLP_RS02595) promoter] | no binding
CAGTTCACAGTCGCGATACTAGGTCGTAAGCCCGCCTCAAGTTGCCGCTCATGGGGTCGCCACACGCAGCTACAGGGAGGGTTCGGGCTGAGTTCACCCCTCGTTCACATCCGAACTTCGCCAGCCGGTCCATTTCGGGCATAGGCTCGAAGTCGAGCTTTTCTGATCAATCCCGAGGAATCC (double strand) [phoU (MLP_RS22885) promoter] | no binding
AGACGAGTGCTGCCGTGCACCGACTTCGCATCGGCGCCGCAACACAGTCCCCGCCCGTCGTTCGCTCGGCGTTCACCGGCGGGCCCTCGAGTCGTCAGAATGGCTGCCTAGCGTCTGGACCGGAGCCAGTGTCGCTCCTTACGTTCATTGCACGAGTCACACTCCGACAAGGGGAACGAGTGAAGAT (double strand) [pstS (MLP_RS23035) promoter] | binds
TGTGTCCCTTCCGTGAAACCTCGTCGGTGAAGTCTGGTGCGGGCGAGGGGAATCCCGCCCGGAGGGGAGGCTAAACCACCCAGGAGAATGAATGGAGTGTGGTGGCGCCTCGCGAGAATCCGAGCCGCTTCGGCGGATCGGCGCCCGAGGCTCCCTCCGGTGACAGCACGTTCACCCTGCC (double strand) [ppgk (MLP_RS12905) promoter] | binds
TCGTCTCGGCAGCCCTTGGGTGAACTGTTCTCCGAGCGTGAGTAACGCCTCCGGGCGAGCGAGATGAACTGTTCGTGAATCCGCCGCCCGGGGGCCGTTCCAGGTGGATTTGACCGGTTTCGGAACCCCACGATGGTCGCGTGACCGAAGCTC (double strand) [pit (MLP_RS14415) promoter] | no binding
GACAGCGATCACGGAGATCAGTAGCCAGTCCATGATTGATCTTCCCCTTGCACGGTCAACAACGACAACCCAATCGTCGTGCCATGAGATGGTCGGCCACACGGGTCTTTCGGCTCTATCTGGTCCTTCCTTCGTCACCGGGAGGGCCCGCCGCCGTTCACCCACCGTTCACTGTGCTGGTCG (double strand) [pit (MLP_RS00235) promoter] | binds
TCGCTCTCGGTGTTGATCGATCCGGAGCGCCCGTCCAGACCCTGCACCGATCCGTCGAGGGTCGAGACGAAGTTGCTCCGGACGACCGGTCCGGAGCCGCCTTCGGGCCAGCGATAGAGATCGATCAGGTCTGCTCGGCTGAGCTCGGCGGATGGTCGAGGGTCCGCGTG (double strand) [pap (MLP_RS11265) promoter] | no binding
